Data from patent US8734776B2 (ZymoGenetics, Inc., priority 2003, dated 2014).
Where two headings read alike, the source gives them in different places.

Tests used:
IL-28RA mRNA = test: Semi-quantitative RT-PCR of IL-28RA, IFNAR2 and CRF2-4 mRNA; format: cell-based, human; conditions: HepG2 cells + cytokine
Description: In order to further examine the mRNA distribution for IL-28RA, semi-quantitative RT-PCR was performed using the SDS 7900HT system (Applied Biosystems, CA). One-step RT-PCR was performed using 100 ng total RNA for each sample and gene-specific primers. A standard curve was generated for each primer set using Bjab RNA and all sample values were normalized to HPRT. The normalized values for IFNAR2 and CRF2-4 are also shown.

HCV replicon = conditions: replicon clones; IFNα at 10 IU/ml; cited from earlier work
Human Daudi cells = test: Daudi cell proliferation (Alamar Blue); format: cell-based; conditions: 1000 ng/ml to 0.5 ng/ml; 72 h
Description: Human Daudi cells were suspended in RPMI+10% FBS at 50,000 cells/milliliter and 5000 cells were plated per well in a 96 well plate. […] IL-29-CEE was used at a concentration range of from 1000 ng/ml to 0.5 ng/ml. […] IFN-α2a was used at a concentration range of from 62 ng/ml to 0.03 ng/ml. Cells were incubated for 72 h at 37° C. […] Plates were farther incubated at 37° C., 5% CO2, for 24 hours.

[1] = system: human peripheral blood mononuclear cells; test: Induction of IL-28A, IL-29, IL-28B RNA in PBMCs by poly I:C and viral infection; conditions: poly I:C 100 μg/ml, 15 h
coxsackie virus [2] = format: cell-based; conditions: Coxsackie B4 virus, KB cells
OAS = OAS activity in serum and plasma of mice (RIA); conditions: C57BL/6 mice; i.v; 10 μg-250 μg
adenovirus [3] = format: cell-based; conditions: A549 cells
influenza virus [4] = format: cell-based; conditions: Influenza (type A [H3N2])
pichinde virus [5] = format: cell-based
[6] = system: respiratory syncytial virus; format: cell-based; conditions: MA-104 cells
[7] = system: ISG gene expression (OAS, Pkr, Mx1); test: ISG gene induction in liver, spleen and blood of injected mice; format: in vivo, mouse; conditions: C57BL/6 mice; i.p or i.v; 10 μg-250 μg
Description: In addition, E. coli derived IL-29 was also tested in in vivo assays as described above using MetIL-29C172S-PEG and MetIL-29-PEG. At various time points and at different doses, ISG gene induction was measured in the blood, spleen and livers of the mice.
Mice were sacrificed at various time points (1 hr-48 hr). Spleens and livers were isolated from mice, and RNA was isolated. RNA was also isolated from the blood cells. The cells were pelleted and RNA isolated from pellets using RNAEasy®-kit (Qiagen). RNA was treated with DNase (Amicon) to rid RNA of any contaminating DNA. cDNA was generated using Perkin-Elmer RT mix (Perkin-Elmer). ISG gene induction was measured by real-time PCR using primers and probes specific for mouse OAS, Pkr and M×1. To obtain quantitative data, HPRT real-time PCR was duplexed with ISG PCR. A standard curve was calculated using known amounts of IFN-stimulated mouse PBLs. All data are shown as expression relative to internal HPRT expression.
Results shown are fold expression relative to HPRT gene expression. […] The data shown is the average expression from 5 different animals/group.
Data shown is fold expression over HPRT expression from livers of mice. Similar data was obtained from blood and spleens of mice.

[8] = system: respiratory syncytial virus; format: cell-based; conditions: MA-104 cells; remark: listed apart in the source
influenza virus [9] = format: cell-based; conditions: Influenza (type A [H3N2]); remark: listed apart in the source
vaccinia virus [10] = format: cell-based; conditions: Vero cells
polio virus [11] = format: cell-based; conditions: Vero cells
BVDV = BVDV CPE inhibition assay in MDBK cells; format: cell-based; conditions: MDBK bovine kidney cells
Description: IFNα and RIBAVIRIN® were used as positive controls. Test sample were added at the time of viral infection.

parainfluenza virus [12] = format: cell-based; conditions: MA-104 cells
pichinde virus [13] = format: cell-based; remark: listed apart in the source
west nile virus [14] = format: cell-based; conditions: Vero cells
dengue virus [15] = format: cell-based; conditions: Vero cells
west nile virus [16] = format: cell-based; conditions: Vero cells; remark: listed apart in the source
polio virus [17] = format: cell-based; conditions: Vero cells; remark: listed apart in the source
rhino virus [18] = format: cell-based
[19] = system: encephelomyocarditis virus; test: Antiviral assay: cytopathic effect in HeLa cells; format: cell-based, human
dengue virus [20] = format: cell-based; conditions: Vero cells; remark: listed apart in the source
adenovirus [21] = format: cell-based; conditions: A549 cells; remark: listed apart in the source
HHV-8 = HHV-8 replication in BCBL-1 cells (TaqMan PCR)
[22] = system: venezuelan equine encephalitis virus; format: cell-based; conditions: Vero cells
[23] = system: venezuelan equine encephalitis virus; format: cell-based; conditions: Vero cells; remark: listed apart in the source
vaccinia virus [24] = format: cell-based; conditions: Vero cells; remark: listed apart in the source
coxsackie virus [25] = format: cell-based; conditions: Coxsackie B4 virus, KB cells; remark: listed apart in the source
[26] = system: human Daudi B lymphoid cells; test: Induction of interferon-stimulated genes in Daudi cells (RT-PCR); format: cell-based; conditions: 72 hours, conditioned medium from Sf9 cells
Text: Interaction of type 1 interferons with their specific receptor leads to induction of a number of genes responsible for their antiviral/antiproliferative activity. These include 2′-5′ oligoadenylate synthetase (2-OAS), double-stranded RNA dependent Pkr kinase (Pkr), phospholipid scramblase, and intercellular adhesion molecule-1 (ICAM-1). Induction of genes with as yet unknown function, such as a 56 kDa interferon stimulated gene product (ISG-56k), also occurs. […] Conditioned medium from Sf9 cells infected with wild-type baculovirus was used as a negative control. Following treatment cells were collected and lysed for isolation of total RNA. One microgram of total RNA was converted to cDNA using reverse transcriptase and used as a template for polymerase chain reaction using oligonucleotide primers specific for the human interferon-stimulated genes described above. Oligonucleotide primers for human […] (G3PDH) were used as a non-interferon stimulated gene control.

[27] = system: encephelomyocarditis virus; test: Antiviral assay: cytopathic effect in L929 cells; format: cell-based, mouse
rhino virus [28] = format: cell-based; remark: listed apart in the source
parainfluenza virus [29] = format: cell-based; conditions: MA-104 cells; remark: listed apart in the source
[30] = Maden-Darby Canine Kidney cells

IFNα [reference compound]
CRF2-4 mRNA normalized to HPRT (IL-28RA mRNA): 3.05
IFNAR2 mRNA normalized to HPRT (IL-28RA mRNA): 3.00
IL-28RA mRNA normalized to HPRT (IL-28RA mRNA): 2.61
reduction of the amount of HCV RNA compared to untreated control cell lines (HCV replicon): 85%

IL-29-CEE: IL-29 conjugated with glu tag
effect on proliferation of Daudi cells (Human Daudi cells): no significant effect

polyinosinic acid-polycytidylic acid [poly I:C]
amount of IL-28A, IL-29, IL-28B RNA [1]: increased

B1: IL-28A: human IL-28A, previously designated zcyto20, SEQ ID NO:2 (protein, listed as Homo sapiens)
chain: MKLDMTGDCTPVLVLMAAVLTVTGAVPVARLHGALPDARGCHIAQFKSLSPQELQAFKRAKDALEESLLLKDCRCHSRLFPRTWDLRQLQVRERPMALEAELALTLKVLEATADTDPALVDVLDQPLHTLHHILSQFRACIQPQPTAGPRTRGRLHHWLYRLQEAPKKESPGCLEASVTFNLFRLLTRDLNCVASGDLCV
modifications: SIGNAL (1)...(25)
EC50 Visual (coxsackie virus [2]): >10 µg/mL
IC50 Visual (coxsackie virus [2]): >10 µg/mL
TC50 (BCBL-1 cells): > 10 µg/mL
OAS activity in the serum and plasma of mice (OAS): induced OAS activity
EC50 Visual (adenovirus [3]): >10 µg/mL
IC50 Visual (adenovirus [3]): >10 µg/mL
EC50 Visual (influenza virus [4]; [30]): >10 µg/mL
IC50 Visual (influenza virus [4]; [30]): >10 µg/mL
EC50 Visual (influenza virus [4]; Vero cells): 0.1 µg/mL
IC50 Visual (influenza virus [4]; Vero cells): >10 µg/mL
EC50 NR (pichinde virus [5]): >10 µg/mL
IC50 NR (pichinde virus [5]): >10 µg/mL
EC50 NR [6]: >10 µg/mL
IC50 NR [6]: >10 µg/mL
ISG gene expression (OAS, Pkr, Mx1) in the livers, spleen and blood of mice [7]: did not induce ISG gene expression
EC50 Visual [8]: >10 µg/mL
IC50 Visual [8]: >10 µg/mL
EC50 NR (influenza virus [9]; [30]): >10 µg/mL
IC50 NR (influenza virus [9]; [30]): >10 µg/mL
EC50 NR (influenza virus [9]; Vero cells): 0.25 µg/mL
IC50 NR (influenza virus [9]; Vero cells): >10 µg/mL
EC50 NR (vaccinia virus [10]): >10 µg/mL
IC50 NR (vaccinia virus [10]): >10 µg/mL
EC50 NR (polio virus [11]): >1.672 µg/mL
IC50 NR (polio virus [11]): >10 µg/mL
IC50 inhibition of cell death induced by BVDV (BVDV): 0.02 µg/mL
EC50 NR (parainfluenza virus [12]): >10 µg/mL
IC50 NR (parainfluenza virus [12]): >10 µg/mL
EC50 Visual (pichinde virus [13]): >10 µg/mL
IC50 Visual (pichinde virus [13]): >10 µg/mL
EC50 Visual (west nile virus [14]): 0.01 ng/mL
IC50 Visual (west nile virus [14]): >10 µg/mL
EC50 NR (dengue virus [15]): 0.1 µg/mL
IC50 NR (dengue virus [15]): >10 µg/mL
EC50 NR (west nile virus [16]): 0.1 ng/mL
IC50 NR (west nile virus [16]): >10 µg/mL
EC50 Visual (polio virus [17]): >10 µg/mL
IC50 Visual (polio virus [17]): >10 µg/mL
EC50 NR (rhino virus [18]; Rhino 2, KB cells): >10 µg/mL
IC50 NR (rhino virus [18]; Rhino 2, KB cells): >10 µg/mL
EC50 NR (rhino virus [18]; Rhino 9, HeLa cells): 1.726 µg/mL
IC50 NR (rhino virus [18]; Rhino 9, HeLa cells): >10 µg/mL
Percentage Cytopathic Effect ([19]; relative CM concentration .008X): 10%
Percentage Cytopathic Effect ([19]; relative CM concentration .0156X): 2.5%
Percentage Cytopathic Effect ([19]; relative CM concentration .0325X): 5%
Percentage Cytopathic Effect ([19]; relative CM concentration .0625X): 2.5%
Percentage Cytopathic Effect ([19]; relative CM concentration .125X): 0%
Percentage Cytopathic Effect ([19]; relative CM concentration .25X): 0%
Percentage Cytopathic Effect ([19]; relative CM concentration .5X): 0%
EC50 Visual (dengue virus [20]): 0.01 µg/mL
IC50 Visual (dengue virus [20]): >10 µg/mL
EC50 NR (adenovirus [21]): >10 µg/mL
IC50 NR (adenovirus [21]): >10 µg/mL
TI (TC50/IC50) (HHV-8): > 10
IC50 HHV-8 viral replication (HHV-8; extracellular HHV-8 DNA): 1 µg/mL
EC50 Visual [22]: 0.01 µg/mL
IC50 Visual [22]: >10 µg/mL
EC50 NR [23]: 0.035 µg/mL
IC50 NR [23]: >10 µg/mL
EC50 Visual (vaccinia virus [24]): >10 µg/mL
IC50 Visual (vaccinia virus [24]): >10 µg/mL
EC50 NR (coxsackie virus [25]): >10 µg/mL
IC50 NR (coxsackie virus [25]): >10 µg/mL
induction of ICAM-1 [26]: No induction
induction of ISG-56k, Pkr, 2-5 OAS and phospholipid scramblase [26]: clear induction
Percentage Cytopathic Effect ([27]; relative CM conc. .008X): 87%
Percentage Cytopathic Effect ([27]; relative CM conc. .0156X): 87%
Percentage Cytopathic Effect ([27]; relative CM conc. .0325X): 87%
Percentage Cytopathic Effect ([27]; relative CM conc. .0625X): 87%
Percentage Cytopathic Effect ([27]; relative CM conc. .125X): 87%
Percentage Cytopathic Effect ([27]; relative CM conc. .25X): 87%
Percentage Cytopathic Effect ([27]; relative CM conc. .5X): 87%
EC50 Visual (rhino virus [28]; Rhino 2, KB cells): >10 µg/mL
IC50 Visual (rhino virus [28]; Rhino 2, KB cells): >10 µg/mL
EC50 Visual (rhino virus [28]; Rhino 9, HeLa cells): >10 µg/mL
IC50 Visual (rhino virus [28]; Rhino 9, HeLa cells): >10 µg/mL
EC50 Visual (parainfluenza virus [29]): >10 µg/mL
IC50 Visual (parainfluenza virus [29]): >10 µg/mL
